Reference: US20230331817A1 (The Regents of the University of California, priority 2020, published 2023)
Where two headings read alike, the source gives them in different places.

Legend:
[1] = molecular target: T1, human plasmin (Homo sapiens, UniProt P00747); assay: Protease inhibition assay, plasmin (S-2251 amidolytic activity); type: biochemical; conditions: 3 nM plasmin; 1 hour at room temperature; tight-binding equation
T1 construct: purchased Hematologic Technologies Inc (Essex Junction, VT)
T1 sequence (P00747 97-580 limits assumed): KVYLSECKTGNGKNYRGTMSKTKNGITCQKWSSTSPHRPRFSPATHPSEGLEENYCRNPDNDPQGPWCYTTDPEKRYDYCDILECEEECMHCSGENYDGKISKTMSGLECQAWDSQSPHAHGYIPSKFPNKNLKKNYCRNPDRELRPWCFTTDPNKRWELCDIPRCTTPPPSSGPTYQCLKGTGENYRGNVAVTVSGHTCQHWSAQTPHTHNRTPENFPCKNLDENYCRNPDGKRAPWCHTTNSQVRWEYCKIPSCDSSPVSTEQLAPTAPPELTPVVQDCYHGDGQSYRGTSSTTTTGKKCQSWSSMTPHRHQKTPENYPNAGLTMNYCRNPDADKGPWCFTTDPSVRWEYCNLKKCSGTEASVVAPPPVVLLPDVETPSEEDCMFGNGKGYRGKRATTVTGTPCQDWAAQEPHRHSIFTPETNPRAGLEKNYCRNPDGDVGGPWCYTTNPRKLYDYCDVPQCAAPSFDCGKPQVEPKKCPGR
T1 sequence (P00747 581-810 limits assumed): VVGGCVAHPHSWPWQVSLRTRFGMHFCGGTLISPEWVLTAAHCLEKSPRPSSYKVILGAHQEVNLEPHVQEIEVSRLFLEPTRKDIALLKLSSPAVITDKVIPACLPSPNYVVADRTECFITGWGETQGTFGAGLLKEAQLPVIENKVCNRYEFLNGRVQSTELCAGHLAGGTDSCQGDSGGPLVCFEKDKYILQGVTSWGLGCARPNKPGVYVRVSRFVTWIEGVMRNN
Experimental: (§1) All reactions were carried out in TBS, pH 7.5 (50 mM Tris-HCL, pH 7.5, containing 100 mM NaCl), containing 0.1 mg bovine serum albumin/ml (TBS/BSA) and 2 mM Ca2+(TBS/BSA/Ca2+, pH 7.5). […] The inhibition constant, K* was determined using the nonlinear regression data analysis program Grafit.
(§2) Ki values were obtained by correcting for the effect of substrate according to Beith (38), using equation 2, where (S) is substrate concentration and KM is specific for each enzyme.
Reactions were carried out in TBS/BSA and 2 mM calcium. […] Synthetic substrate for plasmin was then added to a final concentration of 1 KM, and residual amidolytic activity was measured in a kinetic microplate reader (Molecular Devices).

[2] = molecular target: T2, FVIIa/sTF (Homo sapiens, UniProt P08709); assay: Protease inhibition assay, FVIIa/soluble tissue factor; type: biochemical; conditions: 20 nM FVIIa/sTF; read-out: Ki for Factor VIIa/soluble tissue factor
T2 construct: human factor VIIa (FVIIa) was prepared as described previously (34)
T2 sequence (P08709 213-466 limits assumed): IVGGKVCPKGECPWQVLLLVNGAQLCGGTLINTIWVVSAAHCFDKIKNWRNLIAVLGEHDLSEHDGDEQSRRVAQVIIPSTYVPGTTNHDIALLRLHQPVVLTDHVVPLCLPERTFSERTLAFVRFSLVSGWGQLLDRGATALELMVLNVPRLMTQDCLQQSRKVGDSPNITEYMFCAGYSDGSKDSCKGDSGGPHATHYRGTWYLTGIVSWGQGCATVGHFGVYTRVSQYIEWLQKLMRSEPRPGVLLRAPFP
T2 sequence (P08709 61-212 limits assumed): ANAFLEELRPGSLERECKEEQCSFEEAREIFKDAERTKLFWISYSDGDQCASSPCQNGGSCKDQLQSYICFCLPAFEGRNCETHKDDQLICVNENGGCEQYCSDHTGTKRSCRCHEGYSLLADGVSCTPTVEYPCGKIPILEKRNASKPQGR
T2 sequence (P13726 33-251 partner limits assumed): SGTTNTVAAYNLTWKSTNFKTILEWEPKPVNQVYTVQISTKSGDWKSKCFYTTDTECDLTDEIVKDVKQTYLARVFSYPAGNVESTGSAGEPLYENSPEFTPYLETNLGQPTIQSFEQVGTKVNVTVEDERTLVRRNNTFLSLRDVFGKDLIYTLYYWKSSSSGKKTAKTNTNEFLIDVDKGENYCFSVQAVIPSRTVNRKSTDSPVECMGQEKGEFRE
Experimental: as §1, §2

[3] = molecular target: T3, FXa (Homo sapiens, UniProt P00742); assay: Protease inhibition assay, factor Xa; type: biochemical; conditions: 1 nM FXa
T3 construct: FXa, factor Xa
T3 sequence (P00742 235-488 limits assumed): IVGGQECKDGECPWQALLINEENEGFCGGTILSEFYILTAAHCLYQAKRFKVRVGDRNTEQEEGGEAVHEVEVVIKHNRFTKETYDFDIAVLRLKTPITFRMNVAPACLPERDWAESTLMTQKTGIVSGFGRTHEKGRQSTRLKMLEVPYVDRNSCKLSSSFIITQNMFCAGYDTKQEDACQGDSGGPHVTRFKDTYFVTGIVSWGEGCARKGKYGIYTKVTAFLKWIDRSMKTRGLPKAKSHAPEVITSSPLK
T3 sequence (P00742 41-179 limits assumed): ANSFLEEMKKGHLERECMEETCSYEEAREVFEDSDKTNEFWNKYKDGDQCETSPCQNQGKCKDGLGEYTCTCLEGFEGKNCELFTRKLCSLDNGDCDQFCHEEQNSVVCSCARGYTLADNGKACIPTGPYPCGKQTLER
Experimental: FIG. 2. Data from Equilibrium inhibition constants (Ki) of KD1Y11T/R15KL17R-KT with plasmin, FXIa, kallikrein (KLK), FVIIa/sTF and FXa. Percent activity of 3 nM human plasmin remaining in the presence of various concentrations (0.05 to 19.2 nM) of KD1Y11T/R15KL17R-KT (●) or BPTI (◯). And percent activity of 1 nM human FXIa (▴), 1 nM human kallikrein (●), 20 nM human FVIIa/sTF (Δ) and 1 nM FXa (♦) remaining in the presence of various concentrations (1 μM to 30 μM) of KD1Y11T/R15KL17R-KT.
Ki values for each inhibitor were calculated using the tight binding equations.

[4] = tested on: HUVEC; type: cell-based, human
Experimental: (§3) Resazurin reduction assay (Fisher Scientific) was used to evaluate the potential cytotoxicity of antifibrinolytic agents toward primary human endothelial cells and skin fibroblasts. Phosphate buffer that was used to dissolve the samples was included as negative control. The assay is based on reduction of the non-fluorescent dye resazurin, to the highly fluorescent resorufin by viable cells. […] Briefly, cells in 96-well cell culture plates were treated with different concentrations of antifibrinolytic compounds (as described above). After 24 hours resazurin reagent was added to each well and the plates were incubated at 37° C. for 4 hours. Fluorescence was measured by the FLUOstar Omega Microplate Reader (BMG Labtech) using an excitation wavelength of 544 nm and an emission wavelength of 590 nm. Each assay was done in duplicate, with three replicates each. The viability was evaluated based on comparison with untreated cells.

[5] = tested on: primary human dermal skin fibroblasts; assay: Resazurin reduction (alamarBlue) viability assay, skin fibroblasts; type: cell-based
Experimental: as §3

[6] = tested on: HUVEC; assay: Caspase 3/7 assay, HUVEC; type: cell-based, human; conditions: 24 hours; 30 μM KD1TM, 30 μM BPTI, 60 mM EACA, 30 mM TXA
Experimental: The influence of antifibrinolytic agents on apoptosis in cells was detected using the Caspase-Glo 3/7 Assay kit (Promega). Caspase 3 and 7 are activated in cells that undergo apoptosis. The assay provides a luminogenic substrate for caspase 3 and 7. Enzymatic activity leads to luminescence, which is proportional to the amount of caspase activity present. Cells were seeded in 96-well plates and treated with antifibrinolytic agents or phosphate buffer (solvent control). Taxol was included as positive control. After 24 hours of treatment, caspase reagent was added to each well, mixed and incubated for 1 hour at room temperature. Luminescence was measured using the FLUOstar Omega Microplate Reader (BMG Labtech).

[7] = tested on: HUVEC; conditions: 24 hours; 30 μM KD1TM, 30 μM BPTI, 60 mM EACA, 30 mM TXA
Source text: (§4) Primary human pooled umbilical vein endothelial cells (HUVEC) were obtained from ATCC. The cells were maintained in Vascular Cell Basal Medium (ATCC), supplemented with the Endothelial Cell Growth Kit-BBE (ATCC) and Penicillin-Streptomycin-Amphotericin B (ATCC). Primary human dermal skin fibroblasts were obtained from LONZA and maintained in Fibroblast Basal Medium (FBMTM, LONZA), supplemented with a cocktail of growth factors, fetal bovine serum and antibiotics (FGMTM-2 SingleQuots™, LONZA). All cells were maintained in a humidified 5% C02 atmosphere at 37° C. and were passaged once they reached 80% confluence. All experiments were performed with cells in the logarithmic growth phase.
(§5) For toxicity studies, cells were seeded into 96-well or 24-well cell culture plates at 3,500 cells/cm2 and were used for experiments once they reached 80% confluence.
(§6) Cell toxicity and cell death was evaluated with the CellTox™ Green Cytotoxicity Assay (Promega). This assay measures changes in membrane integrity that occur as a result of cell death. The dye used in the system is excluded from viable cells but binds to DNA in compromised cells, which results in a fluorescent signal. We measured cell death in HUVEC and primary fibroblasts treated with antifibrinolytic agents at 4 concentrations (as indicated above) with triplicates per concentration in 24-well plates after 24 hours of exposure. Hoechst (Thermo Fisher Scientific) was used to stain all nuclei. Images of cells were captured using an inverted microscope (Nicon; Edipse T2000 TE). Green fluorescent cells (FITC filter) and Hoechst stained cells (DAPI filter) were counted using Image J software.

[8] = tested on: primary human dermal skin fibroblasts; conditions: 24 hours; 30 μM KD1TM, 30 μM BPTI, 60 mM EACA, 30 mM TXA
Source text: as §4, §5, §6

[9] = human, in vivo; cited from earlier work
[10] = in vivo; cited from earlier work
[11] = tested on: mouse tail bleeding model; conditions: cited from earlier work

| Substance | Ki [1] [nM] | Ki [2] [nM] | Ki [3] [nM] | HUVEC viability (FIG. 4) [4] | Fibroblast cell viability (FIG. 5) [5] | Apoptosis, caspase-3/7 activity, HUVEC (FIG. 6) [6] | HUVEC cytotoxicity, CellTox green (FIG. 7) [7] | Fibroblasts cytotoxicity, CellTox green (FIG. 8) [8] | half-life [9] [h] | half-life [10] [h] | Reduction of blood loss [11] |
| --- | --- | --- | --- | --- | --- | --- | --- | --- | --- | --- | --- |
| aprotinin | 0.5 ± 0.1 | > 3000 | > 3000 | not significantly different from the untreated cells | not significantly different from the untreated cells | did not induce apoptosis | did not induce toxicity | did not induce toxicity | ~2 | ~1.17 |  |
| Textilinin-1 [Q8008] |  |  |  |  |  |  |  |  |  |  | as effective as aprotinin in reducing blood loss |
